The results in this text go back to IntAct's records for PubMed 28054552.

B1: Hexokinase-2 (Homo sapiens), P52789 (parent)
chain: MIASHLLAYFFTELNHDQVQKVDQYLYHMRLSDETLLEISKRFRKEMEKGLGATTHPTAAVKMLPTFVRSTPDGTEHGEFLALDLGGTNFRVLWVKVTDNGLQKVEMENQIYAIPEDIMRGSGTQLFDHIAECLANFMDKLQIKDKKLPLGFTFSFPCHQTKLDESFLVSWTKGFKSSGVEGRDVVALIRKAIQRRGDFDIDIVAVVNDTVGTMMTCGYDDHNCEIGLIVGTGSNACYMEEMRHIDMVEGDEGRMCINMEWGAFGDDGSLNDIRTEFDQEIDMGSLNPGKQLFEKMISGMYMGELVRLILVKMAKEELLFGGKLSPELLNTGRFETKDISDIEGEKDGIRKAREVLMRLGLDPTQEDCVATHRICQIVSTRSASLCAATLAAVLQRIKENKGEERLRSTIGVDGSVYKKHPHFAKRLHKTVRRLVPGCDVRFLRSEDGSGKGAAMVTAVAYRLADQHRARQKTLEHLQLSHDQLLEVKRRMKVEMERGLSKETHASAPVKMLPTYVCATPDGTEKGDFLALDLGGTNFRVLLVRVRNGKWGGVEMHNKIYAIPQEVMHGTGDELFDHIVQCIADFLEYMGMKGVSLPLGFTFSFPCQQNSLDESILLKWTKGFKASGCEGEDVVTLLKEAIHRREEFDLDVVAVVNDTVGTMMTCGFEDPHCEVGLIVGTGSNACYMEEMRNVELVEGEEGRMCVNMEWGAFGDNGCLDDFRTEFDVAVDELSLNPGKQRFEKMISGMYLGEIVRNILIDFTKRGLLFRGRISERLKTRGIFETKFLSQIESDCLALLQVRAILQHLGLESTCDDSIIVKEVCTVVARRAAQLCGAGMAAVVDRIRENRGLDALKVTVGVDGTLYKLHPHFAKVMHETVKDLAPKCDVSFLQSEDGSGKGAALITAVACRIREAGQR
B2: Hexokinase-1 (Homo sapiens), P19367 (parent)
chain: MIAAQLLAYYFTELKDDQVKKIDKYLYAMRLSDETLIDIMTRFRKEMKNGLSRDFNPTATVKMLPTFVRSIPDGSEKGDFIALDLGGSSFRILRVQVNHEKNQNVHMESEVYDTPENIVHGSGSQLFDHVAECLGDFMEKRKIKDKKLPVGFTFSFPCQQSKIDEAILITWTKRFKASGVEGADVVKLLNKAIKKRGDYDANIVAVVNDTVGTMMTCGYDDQHCEVGLIIGTGTNACYMEELRHIDLVEGDEGRMCINTEWGAFGDDGSLEDIRTEFDREIDRGSLNPGKQLFEKMVSGMYLGELVRLILVKMAKEGLLFEGRITPELLTRGKFNTSDVSAIEKNKEGLHNAKEILTRLGVEPSDDDCVSVQHVCTIVSFRSANLVAATLGAILNRLRDNKGTPRLRTTVGVDGSLYKTHPQYSRRFHKTLRRLVPDSDVRFLLSESGSGKGAAMVTAVAYRLAEQHRQIEETLAHFHLTKDMLLEVKKRMRAEMELGLRKQTHNNAVVKMLPSFVRRTPDGTENGDFLALDLGGTNFRVLLVKIRSGKKRTVEMHNKIYAIPIEIMQGTGEELFDHIVSCISDFLDYMGIKGPRMPLGFTFSFPCQQTSLDAGILITWTKGFKATDCVGHDVVTLLRDAIKRREEFDLDVVAVVNDTVGTMMTCAYEEPTCEVGLIVGTGSNACYMEEMKNVEMVEGDQGQMCINMEWGAFGDNGCLDDIRTHYDRLVDEYSLNAGKQRYEKMISGMYLGEIVRNILIDFTKKGFLFRGQISETLKTRGIFETKFLSQIESDRLALLQVRAILQQLGLNSTCDDSILVKTVCGVVSRRAAQLCGAGMAAVVDKIRENRGLDRLNVTVGVDGTLYKLHPHFSRIMHQTVKELSPKCNVSFLLSEDGSGKGAALITAVGVRLRTEASS

In the first assay the parent is B1. The settings on record: with src_mouse Src.
Consider Y686F, for which the “effect of a mutation on the interaction” value is “disrupting interaction strength”.

In another assay the parent is B2. The settings on record: with src_mouse Src.
On to Y732F, for which the “effect of a mutation on the interaction” value was “disrupting interaction strength”.
In the case of Y417F, the “effect of a mutation on the interaction” value is recorded as “with no effect”.
Y27F: the “effect of a mutation on the interaction” value is given as “with no effect”.
